Common to all, as to experiment: AUC
Assay [1] concerns the target Mouse E-cadherin EC1-2 E11D (mouse).
Assay [2] concerns the target Mouse E-cadherin EC1-2 P5A (mouse).
In assay [3] the target is Mouse E-cadherin EC1-2 P5A P6A (mouse).
For assay [4], the target named is Mouse E-cadherin EC1-2 P5G P6G (mouse).
Assay [5] concerns the target Mouse E-cadherin EC1-2 P5S P6S (mouse).
The target in assay [6] is Mouse E-cadherin EC1-2 P6A (mouse).
The target of assay [7] is Mouse E-cadherin EC1-2 W2F (mouse).
For assay [8], the target named is Mouse E-cadherin EC1-2 wild-type (mouse).
Assay [9] concerns the target Mouse E-cadherin EC1-2 with one alanine inserted between residues 2 and 3 (mouse).
Assay [10] concerns the target Mouse E-cadherin EC1-2 with two alanines inserted between residues 2 and 3 (mouse).
The target of assay [11] is Mouse E-cadherin EC2-3 F108W del-TQE (mouse).
For assay [12], the target named is Mouse N-cadherin EC1-2 P5A P6A (mouse).
Assay [13] has as its target Mouse N-cadherin EC1-2 wild type (mouse).
The target in assay [14] is Mouse cadherin-11 EC1-2 F8A (mouse).
Assay [15] has as its target Mouse cadherin-11 EC1-2 wild type (mouse).

In [1], “Mouse E-cadherin EC1-2 E11D (domain or fragment)” showed a dissociation constant Kd of 71.2 µM. “Mouse E-cadherin EC1-2 P5A (domain or fragment)” displayed a dissociation constant (Kd) in [2] of 2.9 µM. That is a single-digit micromolar value. In the case of “Mouse E-cadherin EC1-2 P5A P6A (domain or fragment)”, the Kd in assay [3] was 3.7 µM. That is a single-digit micromolar value. In assay [4], “Mouse E-cadherin EC1-2 P5G P6G (domain or fragment)” showed a Kd of 2.7 µM. For the substance “Mouse E-cadherin EC1-2 P5S P6S (domain or fragment)”, the Kd in assay [5] is 2.9 µM. That is a single-digit micromolar value. Turning to “Mouse E-cadherin EC1-2 P6A (domain or fragment)”, the Kd in [6] turned out to be 4.8 µM. In turn, “Mouse E-cadherin EC1-2 W2F (domain or fragment)” displayed a Kd in assay [7] of 246 µM.

The substance “Mouse E-cadherin EC1-2 wild-type (domain or fragment)” showed a Kd in [8] of 96.5 µM. Substance “Mouse E-cadherin EC1-2 with one alanine inserted between residues 2 and 3 (domain or fragment)” returned a dissociation constant (Kd) in assay [9] of 1520 µM. The substance “Mouse E-cadherin EC1-2 with two alanines inserted between residues 2 and 3 (domain or fragment)” displayed a dissociation constant Kd in assay [10] of 195 µM.

The substance “Mouse E-cadherin EC2-3 F108W del-TQE (domain or fragment)” returned a Kd in assay [11] of 46.5 µM.

In assay [12], “Mouse N-cadherin EC1-2 P5A P6A (domain or fragment)” returned a Kd of 3.6 µM.

In assay [13], “Mouse N-cadherin EC1-2 wild type (domain or fragment)” came in with a Kd of 25.8 µM. Take “Mouse cadherin-11 EC1-2 F8A (domain or fragment)”: the Kd in assay [14] was found to be 3.7 µM. “Mouse cadherin-11 EC1-2 wild type (domain or fragment)” came in with a Kd in assay [15] of 25.2 µM.

As usually defined, the Kd is a measure of binding affinity in units of concentration.

These data come from publication PMC3113550.
